Data as given in patent publication US20120021999A1 (published 2012).
Ends that are not written are not given here. * marks the point of attachment. Biotin = O=C1N[C@H]2[C@H](CS[C@H]2CCCCC(=O)*)N1

T1: caspase-9 from IL-2-stimulated TS1αβ cellular extracts (mouse, UniProt Q8C3Q9 1-454, limits assumed)
T1 construct: Endogenous protein in a cell lysate
T1 sequence (looked up): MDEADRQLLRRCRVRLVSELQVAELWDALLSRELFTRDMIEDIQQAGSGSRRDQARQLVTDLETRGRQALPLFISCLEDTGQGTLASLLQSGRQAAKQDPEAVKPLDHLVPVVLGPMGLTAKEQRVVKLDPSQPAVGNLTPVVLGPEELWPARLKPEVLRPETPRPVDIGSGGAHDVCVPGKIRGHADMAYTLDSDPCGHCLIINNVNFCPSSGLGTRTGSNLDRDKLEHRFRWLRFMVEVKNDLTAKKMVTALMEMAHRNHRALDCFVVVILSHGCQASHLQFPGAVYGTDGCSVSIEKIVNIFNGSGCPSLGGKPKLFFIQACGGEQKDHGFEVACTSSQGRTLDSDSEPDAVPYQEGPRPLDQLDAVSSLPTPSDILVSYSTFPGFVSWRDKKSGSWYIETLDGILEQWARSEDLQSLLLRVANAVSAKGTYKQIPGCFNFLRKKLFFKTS

B1: DPT-sh1 (peptide)
peptide: Biotin-VKKKKIKREIKI
notes: Penetrating shuttle peptide; origin printed as CK2alpha (human); Biotinylated, held on streptavidin beads in the pull-down; also called shuttle
B2: DPT-C9 (peptide)
peptide: Biotin-VKKKKIKREIKIYIETLDGILEQWARSEDL
notes: Biotinylated, held on streptavidin beads in the pull-down
B3: C9 (peptide)
peptide: Biotin-YIETLDGILEQWARSEDL
notes: Synthetic NH2-biotinylated peptide, held on streptavidin beads in the pull-down
B4: DPT-C9r (peptide)
peptide: Biotin-VKKKKIKREIKILDESRAWQELIGDLTEIY
notes: as for B2

How the values were obtained:
[1] = target: T2, PP2Ac from IL-2-stimulated TS1αβ cellular extracts (mouse, UniProt P63330 1-309); test: pull-down of biotinylated peptide on streptavidin beads from TS1αβ cell extracts, anti-PP2Ac immunoblot
T2 construct: Endogenous protein in a cell lysate, detected by immunoblot with anti-PP2Ac antibody
T2 sequence (P63330 whole entry): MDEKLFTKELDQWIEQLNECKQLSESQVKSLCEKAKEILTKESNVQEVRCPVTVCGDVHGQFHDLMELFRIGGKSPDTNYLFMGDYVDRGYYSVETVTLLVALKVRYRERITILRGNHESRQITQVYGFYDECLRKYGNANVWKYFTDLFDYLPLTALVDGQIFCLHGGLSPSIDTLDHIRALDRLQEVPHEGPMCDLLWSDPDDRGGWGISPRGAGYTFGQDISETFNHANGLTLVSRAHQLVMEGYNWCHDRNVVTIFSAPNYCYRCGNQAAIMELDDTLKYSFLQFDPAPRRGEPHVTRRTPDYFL
Method: Control streptavidin-sepharose alone or conjugated to DPT-C9, DPT-C9r, DPT-sh1 or C9 peptides were incubated with IL-2-stimulated cellular extracts form TS1αβ cells (10⁷ cells/point). Identification of unbound proteins in lysates or bound proteins in pull-down experiments was performed by immunoblotting using antibodies against PP2Ac or PP1c.
Biotinylated peptides were preincubated 2 h at 0-100 μM (in final concentration with lysate) at room temperature with 30 μl of streptavidin-coated immunomagnetic beads (Calbiochem, San Diego Calif.). During this time, 10⁷ exponentially growing TS1αβ cells were first washed twice with PBS and then lysed 10 minutes on ice in 400 μl of lysis buffer (50 mM Tris pH7.4, 150 mM NaCl, 20% glycerol, 1% NP-40, 10 mM EDTA, 1 mM PhenylMethylSulfonyl Fluoride, 10 mM NaF, 1 mM orthovanadate, “complete, EDTA-free” protease inhibitor cocktail from Roche).
Lysates were clarified at 13000 g for 10 minutes at 4° C. and were incubated with biotinylated peptides associated with the streptavidin-coated immunomagnetic beads 2 h at 4° C. Biotinylated peptides were pulled down with streptavidin beads and washed two times in 700 μl of lysis buffer on ice. Bound proteins and unbound lysates were then analyzed by SDS-PAGE and Western Blotting using PP1c or PP2Ac antibodies.

[2] = target: T1, caspase-9 from IL-2-stimulated TS1αβ …; test: pull-down of biotinylated peptide on streptavidin beads from TS1αβ cell extracts, immunoblot

Row | Binder | binding result [1] | binding result [2]
1 | B1 | no binding | –
2 | B2 | – | no binding
3 | B3 | – | no binding
4 | B4 | no binding | –
